Patent US20030065144A1

Target: UNC-49B GABA receptor subunit (UNC-49B.1 isoform) (C. elegans)
Assay: cell-based or functional assay

Row | GABA concentration required to produce half-maximal channel activity (EC50), Xenopus oocytes injected with UNC-49B.1 mRNA, two-electrode voltage clamp [µM] | single main conductance state, single channel recordings in HEK-293 cells expressing UNC-49B alone [pS] | EC50 value for GABA, Xenopus oocytes injected with equal amounts of UNC-49B and UNC-49C RNA, two-electrode voltage clamp [µM] | single main conductance state, single channel recordings in HEK-293 cells transfected with UNC-49B and UNC-49C [pS] | Substance
1 | 43.7 | 37.5 | – | – | UNC-49B GABA receptor subunit (UNC-49B.1 isoform)
2 | – | – | 108 | 30.9 | UNC-49C GABA receptor subunit
